From article doi:10.1101/713511
pKd: −log10 of the molar value.

Tests used:
[1] = tested on: T1, Atto550-SERF1a (human), O75920-2; assay: fluorescence anisotropy
T1 sequence: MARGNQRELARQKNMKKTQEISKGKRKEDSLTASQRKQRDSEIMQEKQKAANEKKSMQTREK

MOAG-4 (C. elegans) = assay: fluorescence anisotropy

## tRNA (type X-SA)
[1]
  pKd: 5.96

## ACUGCUAGAGAUUUUCCACAU [Cy3-R21(-)]
MOAG-4 (C. elegans)
  pKd: 5.32
